Experimental data from patent publication US20140288000A1 (University of California, published 2014).

biological target: human plasmin (human, UniProt P00747 97-810, limits assumed); assay: cell-based or functional assay
Sequence (P00747 97-810 limits assumed): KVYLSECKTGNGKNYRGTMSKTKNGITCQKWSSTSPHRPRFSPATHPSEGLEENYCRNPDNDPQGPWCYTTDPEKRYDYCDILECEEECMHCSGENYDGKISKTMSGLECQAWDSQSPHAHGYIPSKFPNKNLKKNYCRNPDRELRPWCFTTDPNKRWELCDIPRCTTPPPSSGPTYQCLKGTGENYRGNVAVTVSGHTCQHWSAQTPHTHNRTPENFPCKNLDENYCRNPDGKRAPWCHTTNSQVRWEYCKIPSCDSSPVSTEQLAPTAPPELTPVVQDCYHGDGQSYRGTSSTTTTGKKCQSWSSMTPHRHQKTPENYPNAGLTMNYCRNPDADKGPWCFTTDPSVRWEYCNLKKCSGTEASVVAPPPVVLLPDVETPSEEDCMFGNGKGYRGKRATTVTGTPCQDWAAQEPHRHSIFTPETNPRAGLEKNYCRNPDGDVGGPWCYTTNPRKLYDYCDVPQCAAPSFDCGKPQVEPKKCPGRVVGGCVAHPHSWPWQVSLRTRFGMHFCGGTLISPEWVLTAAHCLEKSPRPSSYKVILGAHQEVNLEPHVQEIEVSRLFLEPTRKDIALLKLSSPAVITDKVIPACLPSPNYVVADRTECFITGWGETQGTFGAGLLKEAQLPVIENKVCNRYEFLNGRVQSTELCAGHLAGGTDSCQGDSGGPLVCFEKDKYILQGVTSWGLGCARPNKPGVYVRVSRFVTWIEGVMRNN

| Binder | IC50 (nM), inhibition of plasmin activity on chromogenic substrate S2251 [nM] |
| --- | --- |
| plasmin-inhibiting polypeptide comprising the amino acid sequence set forth in SEQ ID NO:5 (designed binder) NAEICLLPLDYGPCRARLLRYYYDRYTQSCRQFLYGGCEGNANNFYTWEACDDACWRIEK | 3.4 |
| plasmin-inhibiting polypeptide comprising the amino acid sequence set forth in SEQ ID NO:3 (designed binder) NAEICLLPLDTGPCRARLLRYYYDRYTQSCRQFLYGGCEGNANNFYTWEACDDACWRIEK | 1.8 |
| plasmin-inhibiting polypeptide comprising the amino acid sequence set forth in SEQ ID NO:4 (designed binder) NAEICLLPLDTGPCRARLLRYYYDRYTQSCRQFLYGGCEGNANNFYTWEACDDACWRIEKVPK | 0.8 |
| plasmin-inhibiting polypeptide comprising the amino acid sequence set forth in SEQ ID NO:6 (designed binder) NAEICLLPLDYGPCRARLLRYYYDRYTQSCRQFLYGGCEGNANNFYTWEACDDACWRIEKVPK | 1.8 |
